The values below come from publication PMC2920127 (Nature structural & molecular biology, 2010).

The target of this test is recombinant full-length His-tagged human PABPC1 (human, UniProt P11940 1-636). The test can be described thus: pull-down.
Chain of recombinant full-length His-tagged human PABPC1 (P11940 whole entry): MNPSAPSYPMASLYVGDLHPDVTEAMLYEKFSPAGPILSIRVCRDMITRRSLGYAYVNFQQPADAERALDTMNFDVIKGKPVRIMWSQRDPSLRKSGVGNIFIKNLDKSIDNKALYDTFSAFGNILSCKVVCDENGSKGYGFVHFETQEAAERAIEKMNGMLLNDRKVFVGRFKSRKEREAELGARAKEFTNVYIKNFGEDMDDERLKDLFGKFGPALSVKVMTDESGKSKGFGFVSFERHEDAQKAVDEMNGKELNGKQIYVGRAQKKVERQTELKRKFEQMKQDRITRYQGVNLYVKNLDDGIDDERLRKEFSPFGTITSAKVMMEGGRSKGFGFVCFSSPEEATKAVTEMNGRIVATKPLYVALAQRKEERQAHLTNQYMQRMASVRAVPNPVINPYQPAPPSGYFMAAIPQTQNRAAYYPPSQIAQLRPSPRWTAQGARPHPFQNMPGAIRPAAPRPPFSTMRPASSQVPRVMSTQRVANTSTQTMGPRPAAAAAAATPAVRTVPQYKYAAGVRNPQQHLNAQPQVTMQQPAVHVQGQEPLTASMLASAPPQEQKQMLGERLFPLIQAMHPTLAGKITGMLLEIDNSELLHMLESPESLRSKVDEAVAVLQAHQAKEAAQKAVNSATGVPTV

B1: GST-fused TNRC6C fragment 1242-1601 (domain or fragment, human, UniProt Q9HCJ0-1 1242-1601, looked up)
chain: PQTPGLPDLQTKEQQSSPNTFAPYPLAGLNPNMNVNSMDMTGGLSVKDPSQSQSRLPQWTHPNSMDNLPSAASPLEQNPSKHGAIPGGLSIGPPGKSSIDDSYGRYDLIQNSESPASPPVAVPHSWSRAKSDSDKISNGSSINWPPEFHPGVPWKGLQNIDPENDPDVTPGSVPTGPTINTTIQDVNRYLLKSGGKLSDIKSTWSSGPTSHTQASLSHELWKVPRNSTAPTRPPPGLTNPKPSSTWGASPLGWTSSYSSGSAWSTDTSGRTSSWLVLRNLTPQIDGSTLRTLCLQHGPLITFHLNLTQGNAVVRYSSKEEAAKAQKSLHMCVLGNTTILAEFAGEEEVNRFLAQGQALPP
In the case of B1, the binding result is reported as “binds”.

B2: GST-fused TNRC6C fragment 1364-1601 (domain or fragment, human, UniProt Q9HCJ0-1 1364-1601, looked up)
chain: PHSWSRAKSDSDKISNGSSINWPPEFHPGVPWKGLQNIDPENDPDVTPGSVPTGPTINTTIQDVNRYLLKSGGKLSDIKSTWSSGPTSHTQASLSHELWKVPRNSTAPTRPPPGLTNPKPSSTWGASPLGWTSSYSSGSAWSTDTSGRTSSWLVLRNLTPQIDGSTLRTLCLQHGPLITFHLNLTQGNAVVRYSSKEEAAKAQKSLHMCVLGNTTILAEFAGEEEVNRFLAQGQALPP
For B2, the binding result is “binds”.
